Results from the supplement of paper PMC7877785.
± gives the uncertainty stated by the source.

Experiment: self-splicing fitness, log relative to wild type (ln ratio); higher = more splicing; Tetrahymena group I intron in knt gene, E. coli kanamycin selection, DiMSum; sequences stand for … in CUCUCU…GGAGGGAAAAGUUAUCAGGCAUGCACCUGGUAGCUAGUCUUUAAACCAAUAGAUUGCAUCGGUUUAAAAGGCAAGACCGUCAAAUUGCGGGAAAGGGGUCAACAGCCGUUCAGUACCAAGUCUCAGGGGAAACUUUGAGAUGGCCUUGCAAAGGGUAUGGUAAUAAGCUGACGGACAUGGUCCUAACCACGCAGCCAAGUCCUAAGUCAACAGAUCUUCUGUUGAUAUGGAUGCAGUUCACAGACUAAAUGUCGGUCGGGGAAGAUGUAUUCUUCUCAUAAGAUAUAGUCGGACCUCUCCUUAAUGGGAGCUAGCGGAUGAAGUGAUGCAACACUGGAGCCGCUGGGAACUAAUUUGUAUGCGAAAGUAUAUUGAUUAGUUUUGGAGUACUCGUGGUCG
In short: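 Fitness was computed with DiMSum as the error-weighted combination of replicate fold changes, kanamycin versus none, each normalised to wild type. The library randomised all eight intron nucleotides of the P1ex region, with the intron placed in the knt kanamycin-resistance gene on pET-22b(+) in E. coli BL21(DE3). Six replicate transformations were grown overnight at 37°C or 30°C on LB agar with or without 25 μg/mL kanamycin, plus 100 μg/mL carbenicillin, 50 μM IPTG and 0.2% rhamnose. Pooled colonies were amplicon-sequenced on an Illumina HiSeq 2500.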

| Sequence | self-splicing fitness (ln) (30 °C) | self-splicing fitness (ln) (37 °C) |
| --- | --- | --- |
| CCAUAGCAAUAUUACGAUAC | -3 ± 0.29 | -2.33 ± 0.23 |
| CCAUAGCAAUAUUACGAUAU | -3.76 ± 0.2 | -2.97 ± 0.19 |
| CCAUAGCAAUAUUACGAUGG | -3.35 ± 0.17 | -2.38 ± 0.18 |
| CCAUAGCAAUAUUACGAUGU | -3.94 ± 0.22 | -2.71 ± 0.2 |
| CCAUAGCAAUAUUACGCACG | -0.758 ± 0.081 | -0.715 ± 0.1 |
| CCAUAGCAAUAUUACGCCUG | -1.08 ± 0.084 | 0.137 ± 0.099 |
| CCAUAGCAAUAUUACGCUUC |  | -2.24 ± 0.49 |
| CCAUAGCAAUAUUACGGAAU | -1.22 ± 0.15 | -2.38 ± 0.2 |
| CCAUAGCAAUAUUACGGGUG | -1 ± 0.06 | -1.48 ± 0.078 |
| CCAUAGCAAUAUUACGGGUU | -3.69 ± 0.17 | -3.79 ± 0.34 |
| CCAUAGCAAUAUUACGGUCG | -0.61 ± 0.069 | -0.291 ± 0.095 |
| CCAUAGCAAUAUUACGUACA | -3.14 ± 0.21 | -1.96 ± 0.21 |
| CCAUAGCAAUAUUACGUCUC | -4.6 ± 0.28 | -3.05 ± 0.22 |
| CCAUAGCAAUAUUACGUGGC | -4.63 ± 0.29 | -2.43 ± 0.24 |
| CCAUAGCAAUAUUACGUGUC | -3.89 ± 0.2 | -2.45 ± 0.23 |
| CCAUAGCAAUAUUACGUUGA | -3.57 ± 0.26 | -2.31 ± 0.15 |
| CCAUAGCAAUAUUACGUUGG | -4.37 ± 0.25 | -3.27 ± 0.24 |
| CCCAAGCAAUAUUACGACCG | -3.32 ± 0.24 | -3.03 ± 0.47 |
| CCCAAGCAAUAUUACGAGCC | -3.79 ± 0.4 | -2.79 ± 0.44 |
| CCCAAGCAAUAUUACGAGGG | -4.18 ± 0.17 | -2.53 ± 0.16 |
| CCCAAGCAAUAUUACGAUAG | -2.95 ± 0.16 | -2.54 ± 0.22 |
| CCCAAGCAAUAUUACGAUUG | -3.88 ± 0.2 | -2.78 ± 0.28 |
| CCCAAGCAAUAUUACGCACA | -2.53 ± 0.2 | -2.19 ± 0.31 |
| CCCAAGCAAUAUUACGCCAA | -2.82 ± 0.16 | -2.47 ± 0.2 |
| CCCAAGCAAUAUUACGCCUG | -3.12 ± 0.19 | -2.88 ± 0.27 |

| Sequence | self-splicing fitness (ln) (30 °C) | self-splicing fitness (ln) (37 °C) |
| --- | --- | --- |
| CCCAAGCAAUAUUACGCGGG | -3.8 ± 0.17 | -2.45 ± 0.18 |
| CCCAAGCAAUAUUACGCUGA | -3.51 ± 0.25 | -3.69 ± 0.34 |
| CCCAAGCAAUAUUACGCUGU | -3.8 ± 0.15 | -2.95 ± 0.17 |
| CCCAAGCAAUAUUACGCUUA | -3.38 ± 0.22 | -2.78 ± 0.21 |
| CCCAAGCAAUAUUACGCUUC | -2.84 ± 0.18 | -3.15 ± 0.43 |
| CCCAAGCAAUAUUACGGCCA | -3.58 ± 0.31 | -1.58 ± 0.16 |
| CCCAAGCAAUAUUACGGGUU | -2.98 ± 0.12 | -2.9 ± 0.2 |
| CCCAAGCAAUAUUACGUACU | -3.84 ± 0.19 | -2.46 ± 0.21 |
| CCCAAGCAAUAUUACGUUAG | -4.82 ± 0.24 | -3.02 ± 0.22 |
| CCCAAGCAAUAUUACGUUUG | -4.1 ± 0.21 | -2.82 ± 0.21 |
| CCCCAGCAAUAUUACGACGA | -4.12 ± 0.39 | -2.68 ± 0.27 |
| CCCCAGCAAUAUUACGACGG | -3.1 ± 0.17 | -3.42 ± 0.3 |
| CCCCAGCAAUAUUACGCAGA | -4.17 ± 0.28 | -3.54 ± 0.21 |
| CCCCAGCAAUAUUACGCAGU | -3.25 ± 0.12 | -2.71 ± 0.15 |
| CCCCAGCAAUAUUACGCAUG | -3.67 ± 0.17 | -2.75 ± 0.16 |
| CCCCAGCAAUAUUACGCGCG | -2.69 ± 0.14 | -2.97 ± 0.22 |
| CCCCAGCAAUAUUACGCGGC | -2.98 ± 0.16 | -3.16 ± 0.4 |
| CCCCAGCAAUAUUACGCGUC | -3.21 ± 0.17 | -2.92 ± 0.18 |
| CCCCAGCAAUAUUACGCUAU | -3.43 ± 0.15 | -1.9 ± 0.13 |
| CCCCAGCAAUAUUACGGCAC | -4.46 ± 0.42 | -2.55 ± 0.29 |
| CCCCAGCAAUAUUACGGCUU | -3.23 ± 0.21 | -2.25 ± 0.23 |
| CCCCAGCAAUAUUACGUAGC | -3.93 ± 0.16 | -2.93 ± 0.2 |
| CCCCAGCAAUAUUACGUAUU | -3.55 ± 0.16 | -3.28 ± 0.28 |
| CCCCAGCAAUAUUACGUGAA | -4.42 ± 0.13 | -2.44 ± 0.099 |
| CCCCAGCAAUAUUACGUGGA | -3.09 ± 0.086 | -1.23 ± 0.068 |

| Sequence | self-splicing fitness (ln) (30 °C) | self-splicing fitness (ln) (37 °C) |
| --- | --- | --- |
| CCCCAGCAAUAUUACGUUUC | -4.32 ± 0.28 | -2.36 ± 0.23 |
| CCCGAGCAAUAUUACGACAG |  | -2.46 ± 0.41 |
| CCCGAGCAAUAUUACGACCA |  | -1.35 ± 0.31 |
| CCCGAGCAAUAUUACGACCG | -4 ± 0.29 | -2.24 ± 0.29 |
| CCCGAGCAAUAUUACGACGG | -3.44 ± 0.17 | -3.49 ± 0.27 |
| CCCGAGCAAUAUUACGAGAG | -3.25 ± 0.2 | -2.15 ± 0.36 |
| CCCGAGCAAUAUUACGAGCG | -3.77 ± 0.29 | -2.88 ± 0.27 |
| CCCGAGCAAUAUUACGAUGC | -4.29 ± 0.46 | -2.52 ± 0.38 |
| CCCGAGCAAUAUUACGAUUA | -3.04 ± 0.24 | -2.4 ± 0.21 |
| CCCGAGCAAUAUUACGCAGC |  | -2.05 ± 0.42 |
| CCCGAGCAAUAUUACGCGAC | -1.96 ± 0.29 | -1.68 ± 0.29 |
| CCCGAGCAAUAUUACGCUAA | -2.14 ± 0.27 | -1.99 ± 0.2 |
| CCCGAGCAAUAUUACGGACU | -2.57 ± 0.11 | -2.19 ± 0.2 |
| CCCGAGCAAUAUUACGGCCG | -4.1 ± 0.23 | -3.14 ± 0.32 |
| CCCGAGCAAUAUUACGGCGG | -3.49 ± 0.23 | -1.66 ± 0.2 |
| CCCGAGCAAUAUUACGGCUU | -3.29 ± 0.17 | -2.71 ± 0.2 |
| CCCGAGCAAUAUUACGGGAA | -4.33 ± 0.29 | -2.39 ± 0.14 |
| CCCGAGCAAUAUUACGGUAG | -3.16 ± 0.18 | -2.35 ± 0.17 |
| CCCGAGCAAUAUUACGGUCU | -2.83 ± 0.21 | -1.85 ± 0.23 |
| CCCGAGCAAUAUUACGUGCA | -3.5 ± 0.2 | -1.52 ± 0.15 |
| CCCGAGCAAUAUUACGUGCC | -4.31 ± 0.3 | -3.26 ± 0.37 |
| CCCGAGCAAUAUUACGUGGU | -4.96 ± 0.34 | -2.59 ± 0.19 |
| CCCGAGCAAUAUUACGUGUA | -3.33 ± 0.2 | -2.97 ± 0.32 |
| CCCGAGCAAUAUUACGUUAA | -2.82 ± 0.2 | -2.25 ± 0.16 |
| CCCGAGCAAUAUUACGUUGU | -3.46 ± 0.14 | -2.73 ± 0.19 |

| Sequence | self-splicing fitness (ln) (30 °C) | self-splicing fitness (ln) (37 °C) |
| --- | --- | --- |
| CCCUAGCAAUAUUACGACUU | -3.27 ± 0.23 | -2.7 ± 0.29 |
| CCCUAGCAAUAUUACGAGAU | -3.88 ± 0.22 | -2.91 ± 0.24 |
| CCCUAGCAAUAUUACGAUGG | -3.91 ± 0.2 | -1.79 ± 0.15 |
| CCCUAGCAAUAUUACGCAAU | -3.56 ± 0.23 | -2.02 ± 0.27 |
| CCCUAGCAAUAUUACGCCUG | -3.64 ± 0.23 | -3.11 ± 0.23 |
| CCCUAGCAAUAUUACGCGGU | -3.75 ± 0.16 | -2.53 ± 0.18 |
| CCCUAGCAAUAUUACGCGUU | -3.65 ± 0.19 | -2.72 ± 0.17 |
| CCCUAGCAAUAUUACGCUAC | -2.96 ± 0.34 | -1.84 ± 0.43 |
| CCCUAGCAAUAUUACGCUGC | -3.47 ± 0.32 |  |
| CCCUAGCAAUAUUACGGAAG | -4.09 ± 0.22 | -2.02 ± 0.19 |
| CCCUAGCAAUAUUACGGACU | -3.48 ± 0.3 | -2 ± 0.32 |
| CCCUAGCAAUAUUACGGAUA |  | -2.73 ± 0.26 |
| CCCUAGCAAUAUUACGGCCC | -3.9 ± 0.27 | -0.5 ± 0.38 |
| CCCUAGCAAUAUUACGGCUC | -4.27 ± 0.23 | -1.75 ± 0.14 |
| CCCUAGCAAUAUUACGGGCG | -1.68 ± 0.089 | -0.597 ± 0.1 |
| CCCUAGCAAUAUUACGGGGA | -3.28 ± 0.23 | -2.41 ± 0.2 |
| CCCUAGCAAUAUUACGGGUC | -3.26 ± 0.14 | -2.65 ± 0.2 |
| CCCUAGCAAUAUUACGGUGA | -2.53 ± 0.11 | -1.23 ± 0.094 |
| CCCUAGCAAUAUUACGUAGG | -2.61 ± 0.15 | -2.15 ± 0.29 |
| CCCUAGCAAUAUUACGUAUG | -3.75 ± 0.2 | -3.63 ± 0.3 |
| CCCUAGCAAUAUUACGUAUU | -3.8 ± 0.17 | -2.92 ± 0.18 |
| CCGAAGCAAUAUUACGAACC | -3.42 ± 0.48 |  |
